Test results: the supplement of paper PMC6757056
± gives the standard deviation of the averaged measurements.

B1: library; a variant is named by its letters at N, in order (parent)
chain: GCUGUCACCGGUGCUUGGUACGUUAUAUUCAGCCGGUCUGAUGAGUCUNNNNNNAGACGAAACAGC

Columns and labels:
[1] = variants of: B1; assay: normalized RNA/DNA level without ligand (relative to sTRSVctl = 100) (log10 (% of sTRSVctl)); HEK293T overexpressing SLC46A1; higher = less ribozyme self-cleavage, higher mRNA level; settings: without (6R,S)-folinic acid; ligand present: no
In short: (§1)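 Library plasmids carrying ribozyme switches linked to mCherry, or to eGFP in some ligand experiments, were transfected into HEK293T at 4 µg per 6-well well, with any ligand added 1 h earlier. Seventy-two hours on, total RNA was extracted with EDTA and reverse-transcribed, amplified, barcoded and sequenced. RNA level was RNA over DNA reads normalized to a spiked-in non-cleaving sequence or to the top sequences, then scaled and log-transformed. The top set was 25 sequences, the transform was ×100 and log10, and sequences needed ≥100 DNA reads.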

[2] = variants of: B1; assay: normalized RNA/DNA level with ligand (relative to sTRSVctl = 100) (log10 (% of sTRSVctl)); HEK293T overexpressing SLC46A1; ligand concentration (+) RNA-Seq: 6 mM; higher = less ribozyme self-cleavage, higher mRNA level; settings: with (6R,S)-folinic acid; ligand present: yes
In short: as §1

| Variant | normalized RNA/DNA level without ligand (log10) [1] | normalized RNA/DNA level with ligand (log10) [2] |
| --- | --- | --- |
| UCAUAU | 1.952 ± 0.0097 | 1.98 ± 0.03 |
| UCAUAC | 2.029 ± 0.0064 | 1.988 ± 0.019 |
| UCAUAG | 1.829 ± 0.0068 | 1.984 ± 0.015 |
| UCCGAC | 2.029 ± 0.013 | 2.031 ± 0.0089 |
| UCCGAA | 1.941 ± 0.015 | 1.978 ± 0.019 |
| UCCGAU | 1.96 ± 0.026 | 2 ± 0.038 |
| ACCAGC | 2.071 ± 0.0016 | 2.06 ± 0.038 |
| ACCAGU | 2.005 ± 0.0042 | 2.02 ± 0.013 |
| ACCAGA | 2.019 ± 0.013 | 2.05 ± 0.033 |
| ACCAGG | 1.9569 ± 0.0006 | 2 ± 0.024 |
| ACAGCC | 2.03 ± 0.0033 | 2.04 ± 0.045 |
| ACAGCU | 2.06 ± 0.024 | 2.059 ± 0.004 |
| ACCCCC | 2.04 ± 0.016 | 2.002 ± 0.015 |
| ACCCCG | 1.998 ± 0.0083 | 1.99 ± 0.073 |
| ACCCCA | 2.02 ± 0.011 | 2 ± 0.05 |
| ACCCCU | 1.997 ± 0.0056 | 1.98 ± 0.073 |
| UCAGGC | 2.031 ± 0.003 | 2.03 ± 0.057 |
| GCAUCA | 2.023 ± 0.013 | 2.03 ± 0.022 |
| GCAUCU | 2.054 ± 0.0071 | 2.04 ± 0.058 |
| GCAUCC | 2.059 ± 0.0098 | 2.048 ± 0.0088 |
| GCAUCG | 2.01 ± 0.029 | 2.061 ± 0.011 |
| ACCGAC | 2.0415 ± 0.00053 | 2.03 ± 0.058 |
| ACCGAU | 1.973 ± 0.0074 | 1.99 ± 0.044 |
| UCCCAU | 2.003 ± 0.0031 | 1.9973 ± 0.0006 |

| Variant | normalized RNA/DNA level without ligand (log10) [1] | normalized RNA/DNA level with ligand (log10) [2] |
| --- | --- | --- |
| UCCCAC | 2.026 ± 0.012 | 2.02 ± 0.043 |
| UCCCAG | 1.962 ± 0.014 | 2.04 ± 0.03 |
| UCCCAA | 1.981 ± 0.011 | 1.97 ± 0.024 |
| UCAUGA | 2.01 ± 0.028 | 2.053 ± 0.019 |
| UCAUGU | 1.942 ± 0.0042 | 2.01 ± 0.039 |
| UCAUGG | 1.947 ± 0.0059 | 2.03 ± 0.048 |
| UCCAAC | 2.067 ± 0.0087 | 2.06 ± 0.03 |
| UCCAAU | 1.953 ± 0.0052 | 1.96 ± 0.028 |
| UCCAAA | 1.982 ± 0.0034 | 1.986 ± 0.015 |
| CCAUUG | 1.97 ± 0.031 | 2.015 ± 0.0036 |
| CCAUUU | 2.012 ± 0.018 | 2.04 ± 0.036 |
| CCAUUC | 2.045 ± 0.02 | 2.03 ± 0.048 |
| CCAUUA | 1.9907 ± 0.00033 | 2 ± 0.023 |
| GCAUGC | 2.025 ± 0.0027 | 1.999 ± 0.0055 |
| GCAUGG | 1.944 ± 0.0075 | 2.04 ± 0.028 |
| GCAUGU | 1.983 ± 0.0026 | 2.02 ± 0.055 |
| ACCAUA | 1.988 ± 0.0064 | 2.013 ± 0.019 |
| ACCAUG | 1.982 ± 0.012 | 2.016 ± 0.0077 |
| ACCAUC | 2.044 ± 0.011 | 2.02 ± 0.04 |
| ACCAUU | 2.02 ± 0.03 | 2.044 ± 0.0061 |
| GCAGGU | 1.934 ± 0.012 | 1.99 ± 0.03 |
| GCAGGC | 1.882 ± 0.0089 | 1.86 ± 0.042 |
| GCAUUC | 2.03 ± 0.052 | 2.023 ± 0.0067 |
| GCAUUU | 2.03 ± 0.0026 | 2.04 ± 0.04 |

| Variant | normalized RNA/DNA level without ligand (log10) [1] | normalized RNA/DNA level with ligand (log10) [2] |
| --- | --- | --- |
| GCAUUG | 1.952 ± 0.009 | 2.01 ± 0.011 |
| CCAGGG | 1.99 ± 0.021 | 2.038 ± 0.018 |
| CCAGGU | 2.026 ± 0.0082 | 2.05 ± 0.033 |
| CCAGGC | 2.094 ± 0.018 | 2.05 ± 0.026 |
| CCAGGA | 1.993 ± 0.00019 | 1.98 ± 0.036 |
| UCCCGG | 2.05 ± 0.018 | 2.05 ± 0.059 |
| UCCCGA | 2.033 ± 0.008 | 2.07 ± 0.033 |
| UCCCGC | 2.013 ± 0.015 | 1.99 ± 0.053 |
| UCCCGU | 2.041 ± 0.013 | 2.04 ± 0.044 |
| CCCCCA | 2.023 ± 0.004 | 1.99 ± 0.047 |
| CCCCCG | 2.05 ± 0.023 | 2 ± 0.0065 |
| CCCCCU | 2.063 ± 0.017 | 2.01 ± 0.037 |
| CCCCCC | 2.0694 ± 0.0015 | 2.02 ± 0.063 |
| GCAGCU | 2.03 ± 0.029 | 2.02 ± 0.045 |
| GCCCAC | 2.02 ± 0.011 | 2.01 ± 0.034 |
| GCCCAA | 2.03 ± 0.014 | 2.02 ± 0.042 |
| GCCCAG | 2 ± 0.028 | 2 ± 0.059 |
| GCCCAU | 2.014 ± 0.0026 | 2.02 ± 0.061 |
| GCCGGG | 2.086 ± 0.015 | 2.045 ± 0.003 |
| GCCGGA | 2.07 ± 0.036 | 2.02 ± 0.031 |
| GCCGGU | 2.067 ± 0.01 | 2.03 ± 0.034 |
| GCCGGC | 2.049 ± 0.0034 | 1.98 ± 0.051 |
| CCAUCG | 2.012 ± 0.01 | 2.017 ± 0.014 |
| CCAUCU | 2.071 ± 0.0041 | 2.07 ± 0.035 |

| Variant | normalized RNA/DNA level without ligand (log10) [1] | normalized RNA/DNA level with ligand (log10) [2] |
| --- | --- | --- |
| CCAUCC | 2.094 ± 0.013 | 2.06 ± 0.021 |
| CCAUCA | 2.026 ± 0.0086 | 2.02 ± 0.05 |
| ACCGGC | 2.1359 ± 0.0014 | 2.085 ± 0.015 |
| ACCGGU | 2.068 ± 0.0071 | 2.052 ± 0.015 |
| ACCGGG | 2.068 ± 0.0057 | 2.06 ± 0.053 |
| ACCGGA | 2.056 ± 0.0065 | 2.042 ± 0.013 |
| GCCGCC | 2.024 ± 0.0036 | 2.0189 ± 0.00031 |
| GCCGCU | 2.048 ± 0.0044 | 2.04 ± 0.044 |
| GCCGCG | 2.0553 ± 0.00018 | 2.092 ± 0.0094 |
| GCCGCA | 2.04 ± 0.027 | 2.044 ± 0.019 |
| ACCCAC | 2.02 ± 0.016 | 2 ± 0.044 |
| ACCCAU | 2.013 ± 0.01 | 2.01 ± 0.036 |
| ACCCAA | 2.02 ± 0.024 | 2.018 ± 0.013 |
| ACCCAG | 1.98 ± 0.01 | 2 ± 0.044 |
| UCCACA | 1.985 ± 0.0093 | 2 ± 0.046 |
| UCCACU | 2.041 ± 0.0029 | 2.052 ± 0.014 |
| UCCACC | 2.018 ± 0.017 | 2.03 ± 0.022 |
| UCAUCA | 2.05 ± 0.039 | 2.03 ± 0.044 |
| UCAUCU | 2.064 ± 0.0079 | 2.055 ± 0.0055 |
| UCAUCG | 1.997 ± 0.0043 | 2.01 ± 0.04 |
| UCAUCC | 2.07 ± 0.051 | 2.05 ± 0.041 |
| ACCCUU | 2.02 ± 0.027 | 2.03 ± 0.044 |
| ACCCUA | 2.018 ± 0.015 | 2.03 ± 0.022 |
| ACCCUC | 2.03 ± 0.031 | 2.02 ± 0.032 |

| Variant | normalized RNA/DNA level without ligand (log10) [1] | normalized RNA/DNA level with ligand (log10) [2] |
| --- | --- | --- |
| ACCCUG | 2.006 ± 0.013 | 2.032 ± 0.013 |
| CCCAAC | 2.042 ± 0.017 | 2.019 ± 0.017 |
| CCCAAG | 1.935 ± 0.014 | 1.99 ± 0.031 |
| CCCAAA | 2.02 ± 0.025 | 2.026 ± 0.0099 |
| CCCAAU | 2.023 ± 0.015 | 2.03 ± 0.028 |
| ACAGUA | 1.947 ± 0.0079 | 1.99 ± 0.043 |
| ACAGUC | 2.0723 ± 0.0011 | 2.054 ± 0.0027 |
| ACAGUU | 2 ± 0.012 | 2.01 ± 0.046 |
| GCCACA | 2.036 ± 0.0076 | 2.026 ± 0.018 |
| GCCACU | 2.022 ± 0.011 | 2.01 ± 0.029 |
| GCCACG | 1.99 ± 0.04 | 2.03 ± 0.062 |
| GCCACC | 2.0387 ± 0.00018 | 2.01 ± 0.025 |
| ACAUCU | 2.024 ± 0.011 | 2.03 ± 0.037 |
| ACAUCG | 2.006 ± 0.014 | 2.07 ± 0.027 |
| CCAGUU | 2.019 ± 0.013 | 2.02 ± 0.05 |
| CCAGUA | 2.027 ± 0.0027 | 2.05 ± 0.044 |
| CCAGUC | 2.06 ± 0.0079 | 2.0299 ± 0.00081 |
| UCCGCC | 2.03 ± 0.021 | 2.0083 ± 0.00058 |
| UCCGCU | 2.068 ± 0.01 | 2.042 ± 0.015 |
| UCCGCA | 2.01 ± 0.03 | 2.01 ± 0.063 |
